{"source": "paper PMC11490885", "biological_target": "hβ3-ICL-del 1D4 (human GABAA receptor β3 subunit, intracellular loop deleted, homomeric receptor) (human)", "assay": "native MS; purified β3-ICL-del receptor, buffer exchanged into 200 mM ammonium acetate pH 8, 0.08 mM DMNG; static nanospray, Q-Exactive EMR; unlabeled receptor seen as a single species; pentamer", "data": [{"substance": "hβ3-ICL-del 1D4 (human GABAA receptor β3 subunit, intracellular loop deleted, homomeric receptor)", "values": [{"measurement": "stoichiometry N", "value": 5}]}]}
